Results from publication PMC7796288.

Target: Pomacea bridgesii metallothionein 2 (PbrMT2), recombinant Cd(II)-loaded preparation (Pomacea bridgesii)
Assay: native MS; ESI-TOF MS at neutral pH (7.0), running buffer 5:95 acetonitrile:ammonium acetate (15 mM); Cd-PbrMT2 production from a CdCl2-supplemented culture; dimeric species seen together with monomeric Cd8- and Cd9- species

- stoichiometry N: 2
Substance: Pomacea bridgesii metallothionein 2 (PbrMT2), recombinant Cd(II)-loaded preparation (natural protein)
